One molecule from article PMC9981704, “PARP1 allows proper telomere replication through TRF1 poly (ADP-ribosyl)ation and helicase recruitment” can be followed below.

Data set [1] concerns the target PARP1 (high specific activity) (human, UniProt P09874 1-1014). In words: EMSA; PARP1 alone, control from PARylation reaction; did not affect DNA migration; 20 mM Hepes pH 7.9, 100 mM NaCl, 50 mM KCl, 1 mM MgCl2, 0.1 mM EDTA, 1 mM DTT, 5% glycerol, 0.5 mg/ml BSA, 0.1% NP-40; 4 °C, 90 min; native 4.5% PAGE. Particulars: protein: commercial; label: 32P 5' end label (T4 PNK); blunt.

Data set [2] has as its target TRF1 (unmodified, His-tagged full length) (human, UniProt P54274 1-439). In words: EMSA; unmodified TRF1, 1 ug protein, 0.5 ng DNA; 20 mM Hepes pH 7.9, 100 mM NaCl, 50 mM KCl, 1 mM MgCl2, 0.1 mM EDTA, 1 mM DTT, 5% glycerol, 0.5 mg/ml BSA, 0.1% NP-40; 4 °C, 90 min; native 4.5% PAGE. Particulars: protein: recombinant; tags: His (pTrc-HisB); chain copies: 2; label: 32P 5' end label (T4 PNK); blunt. Background: A gel shift assay detects complexes by their altered migration in electrophoresis.

Chain of TRF1 (unmodified, His-tagged full length) (P54274 whole entry): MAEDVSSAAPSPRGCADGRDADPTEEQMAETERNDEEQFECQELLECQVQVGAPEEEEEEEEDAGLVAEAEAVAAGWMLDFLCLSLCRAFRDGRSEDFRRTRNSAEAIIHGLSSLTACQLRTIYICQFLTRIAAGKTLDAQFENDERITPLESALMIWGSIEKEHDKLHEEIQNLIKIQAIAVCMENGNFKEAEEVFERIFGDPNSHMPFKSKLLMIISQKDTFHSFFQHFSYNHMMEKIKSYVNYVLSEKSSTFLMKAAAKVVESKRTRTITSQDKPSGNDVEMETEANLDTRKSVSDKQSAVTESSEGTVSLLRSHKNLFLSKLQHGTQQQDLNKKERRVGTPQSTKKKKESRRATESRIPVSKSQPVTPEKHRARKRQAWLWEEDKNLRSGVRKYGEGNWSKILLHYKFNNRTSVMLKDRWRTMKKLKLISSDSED
Chain of PARP1 (high specific activity) (P09874 whole entry): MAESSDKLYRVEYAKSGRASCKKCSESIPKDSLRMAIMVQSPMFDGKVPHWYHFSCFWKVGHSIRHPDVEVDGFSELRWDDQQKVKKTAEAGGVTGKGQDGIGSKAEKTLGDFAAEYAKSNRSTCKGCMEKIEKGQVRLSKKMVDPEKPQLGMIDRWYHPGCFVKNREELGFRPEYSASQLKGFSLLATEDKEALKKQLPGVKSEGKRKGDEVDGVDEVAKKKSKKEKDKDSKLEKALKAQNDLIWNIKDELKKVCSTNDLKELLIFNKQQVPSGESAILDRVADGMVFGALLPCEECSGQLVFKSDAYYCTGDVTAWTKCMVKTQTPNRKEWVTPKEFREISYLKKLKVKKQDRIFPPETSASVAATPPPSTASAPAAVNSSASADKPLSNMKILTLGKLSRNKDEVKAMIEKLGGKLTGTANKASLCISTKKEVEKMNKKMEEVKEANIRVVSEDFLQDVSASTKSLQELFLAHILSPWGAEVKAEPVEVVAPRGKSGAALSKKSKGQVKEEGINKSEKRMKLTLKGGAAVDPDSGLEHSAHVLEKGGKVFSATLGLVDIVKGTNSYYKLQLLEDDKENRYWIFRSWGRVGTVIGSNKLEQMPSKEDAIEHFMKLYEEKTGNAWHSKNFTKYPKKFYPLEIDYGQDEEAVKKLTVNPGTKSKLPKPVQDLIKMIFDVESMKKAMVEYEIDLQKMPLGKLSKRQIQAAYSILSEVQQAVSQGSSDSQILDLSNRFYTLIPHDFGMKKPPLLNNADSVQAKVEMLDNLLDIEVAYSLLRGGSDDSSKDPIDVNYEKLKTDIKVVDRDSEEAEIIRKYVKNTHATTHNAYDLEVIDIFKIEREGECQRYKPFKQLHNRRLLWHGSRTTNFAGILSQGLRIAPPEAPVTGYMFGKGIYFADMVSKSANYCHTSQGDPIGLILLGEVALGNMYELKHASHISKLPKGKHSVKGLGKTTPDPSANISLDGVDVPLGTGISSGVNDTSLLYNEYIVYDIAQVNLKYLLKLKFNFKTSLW

B1: telomeric duplex DNA (dsDNA)
DNA 1: GGGTTAGGGTTAGGGTTAGGGTTAGGGTTAGGGTTAGGGTTAGGGCCCCTC
DNA 2: GAGGGGCCCTAACCCTAACCCTAACCCTAACCCTAACCCTAACCCTAACCC
On to B1, for which the binding result in data set [1] is “no binding”; in data set [2], “binds”.
